Measured values as given in patent US20160264953A1.

Assays:
[1] = target: mannose-6-phosphate receptor; experiment: relative binding to mannose-6-phosphate receptor; method not given
[2] = target: mannose-6-phosphate receptor; experiment: relative binding to mannose-6-phosphate receptor (Fabrazyme = 100); method not given

Molecule	Binding to M6Pr (%) [1]	Binding to M6Pr (%) [2]
Fabrazyme® (from UniProt P06280 32-429) (enzyme)	100%	–
recombinant human α-galactosidase-A protein provided herein (FZ2G) (enzyme, N-linked oligosaccharides (including mannose-6-phosphate and bis-mannose-6-phosphate oligosaccharides) at Asn108, Asn161 and Asn184) LDNGLARTPTMGWLHWERFMCNLDCQEEPDSCISEKLFMEMAELMVSEGWKDAGYEYLCIDDCWMAPQRDSEGRLQADPQRFPHGIRQLANYVHSKGLKLGIYADVGNKTCAGFPGSFGYYDIDAQTFADWGVDLLKFDGCYCDSLENLADGYKHMSLALNRTGRSIVYSCEWPLYMWPFQKPNYTEIRQYCNHWRNFADIDDSWKSIKSILDWTSFNQERIVDVAGPGGWNDPDMLVIGNFGLSWNQQVTQMALWAIMAAPLFMSNDLRHISPQAKALLQDKDVIAINQDPLGKQGYQLRQGDNFEVWERPLSGLAWAVAMINRQEIGGPRSYTIAVASLGKGVACNPACFITQLLPVKRKLGFYEWTSRLRSHINPTGTVLLQLENTMQMSLKDLL	–	130%
